Legend:
[1] = target: T1, recombinant human CD16a V158 (human, UniProt P08637 17-208, biotinylated); assay: SPR 25C
T1 construct: also called FcγRIIIa V158; hCD16aV

[2] = target: T2, recombinant human CD16a F158 (human, UniProt P08637 17-208); assay: SPR 25C
T2 construct: also called FcγRIIIa F158

BCMA = target: T3, BCMA; assay: SPR specificity test
T3 chain: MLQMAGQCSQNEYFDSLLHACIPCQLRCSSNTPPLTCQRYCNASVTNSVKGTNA

HER2 = assay: SPR specificity test

T2 sequence (P08637 17-208 limits assumed): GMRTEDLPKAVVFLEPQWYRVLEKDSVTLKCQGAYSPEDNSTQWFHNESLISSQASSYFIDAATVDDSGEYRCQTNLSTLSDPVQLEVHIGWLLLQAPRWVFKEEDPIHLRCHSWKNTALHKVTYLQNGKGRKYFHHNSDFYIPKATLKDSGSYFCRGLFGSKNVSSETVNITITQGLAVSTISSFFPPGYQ
T1 sequence (P08637 17-208 F176V limits assumed): as the sequence (P08637 17-208 limits assumed) above, with F160V counted along it

B1: F3'-1602 TriNKET (other)
chain: QLQLQESGPGLVKPSETLSLTCTVSGFSLTNYGLHWIRQPPGKCLEWIGVIWSGGKTDYNPSLKSRVTISKDTSKNQFSLKLSSVQAADTAVYYCAKYDYDDSLDYWGQGTLVTVSSGGGGSGGGGSGGGGSGGGGSDIQMTQSPSSLSASVGDRVTITCHASQNINFWLSWYQQKPGKAPKLLIYEASNLHTGVPSRFSGSGSGTRFTLTISSLQPEDIATYYCQQSHSYPLTFGCGTKLEIKGSDKTHTCPPCPAPELLGGPSVFLFPPKPKDTLMISRTPEVTCVVVDVSHEDPEVKFNWYVDGVEVHNAKTKPREEQYNSTYRVVSVLTVLHQDWLNGKEYKCKVSNKALPAPIEKTISKAKGQPREPRVYTLPPCRDELTKNQVSLTCLVKGFYPSDIAVEWESNGQPENNYKTTPPVLVSDGSFTLYSKLTVDKSRWQQGNVFSCSVMHEALHNHYTQKSLSLSPG
heavy: EVQLVESGGGLVKPGGSLRLSCAASGFTFSSYSMNWVRQAPGKGLEWVSSISSSSSYIYYADSVKGRFTISRDNAKNSLYLQMNSLRAEDTAVYYCARGAPIGAAAGWFDPWGQGTLVTVSSASTKGPSVFPLAPSSKSTSGGTAALGCLVKDYFPEPVTVSWNSGALTSGVHTFPAVLQSSGLYSLSSVVTVPSSSLGTQTYICNVNHKPSNTKVDKKVEPKSCDKTHTCPPCPAPELLGGPSVFLFPPKPKDTLMISRTPEVTCVVVDVSHEDPEVKFNWYVDGVEVHNAKTKPREEQYNSTYRVVSVLTVLHQDWLNGKEYKCKVSNKALPAPIEKTISKAKGQPREPQVCTLPPSRDELTENQVSLTCLVKGFYPSDIAVEWESNGQPENNYKTTPPVLDSDGSFFLYSWLTVDKSRWQQGNVFSCSVMHEALHNHYTQKSLSLSPG
light: DIQMTQSPSSVSASVGDRVTITCRASQGISSWLAWYQQKPGKAPKLLIYAASSLQSGVPSRFSGSGSGTDFTLTISSLQPEDFATYYCQQGVSFPRTFGGGTKVEIKRTVAAPSVFIFPPSDEQLKSGTASVVCLLNNFYPREAKVQWKVDNALQSGNSQESVTEQDSKDSTYSLSSTLTLSKADYEKHKVYACEVTHQGLSSPVTKSFNRGEC
notes: CLEC12A scFv-Fc, NKG2D A49MI Fab-Fc, human IgG1 Fc; also called AB0237
With B1 the “fold difference in affinity vs trastuzumab” value [1] was ≤ 3 fold, the “fold difference in affinity vs trastuzumab” value [2] was ≤ 3 fold and the binding result (BCMA) was “no binding (tested: 500 nM)”. B1: no binding (tested: 500 nM) (HER2).

Reference: patent US20220119534A1 (DRAGONFLY THERAPEUTICS, published 2022)
